Some targets named below: FIKK13_4_S7A_Y10A; FIKK13_4_S7A; FIKK13_4_Y10A; FIKK13_1; FIKK13_6.
Common to all, as to experiment: SPR

B1: Bio-His-FIKK13 (enzyme)
chain: MKKKENTQKLLNFVYYKIYLTFIVGLLYIFLLNILINHGGSKNDVRFTNIRCVRIFSENIKNINEISKKIYLYNIKNEKDDIICRDSLDNINEINNKINYTSVKGEDIIILKEGKYKNGCSDINFLDRKDVNKNDDQSFRNYHKTNNNKDENVNMKSYVYNWELGQKSLIKMLDYADNFYFNGVKYSDWKLTSMRRFNLNNNVLKDHKTYKSIINSKKGNDMKKVKLFIKKIPIDIWVEQFNLMKKYEGEYLIDKENYVMEAVSLAFLNEYYPGITPKFYKILYESDKNNMNEKNCKKYKFQDLNELNDILTKKLENNINGNIVLISEFFGENVFDYIKRKKNTLFVVSDISNEDKKKILYNSLNLLMRLHNAGLTHLDLSPDNMLISPKNYEMRLCDLSQSTPIYTNKLRHKEKLNSIKPFESFEPCIGKIEYIPPECWKIVWKYKMNNIKNPIEYLKNISNQEERKKYYYDVSCADKYMLGIFFIWMWNNGFIWKCSDPIQDKIFEIFMKSNMDLNKFIMTKSWPHELNNLINKLLHMEHRKTVKLSDLSRHPWWSSKN
Broadly, the Kd is the free concentration of one partner at which half of the binding sites on the other are occupied at equilibrium, for simple one-to-one binding. Low values mean tighter binding, high ones weaker binding. As to B1, the dissociation constant (Kd) is above 10 µM in the test with FIKK13_4_S7A_Y10A; 3.4 µM with FIKK13_4_S7A; above 10 µM in the test with FIKK13_4_Y10A; above 10 µM in the test with FIKK13_1; above 10 µM in the test with FIKK13_6.
